Measured values from the Immune Epitope Database (IEDB).

Experiments:
HLA-A*30:01 = test: IEDB peptide-MHC binding, purified MHC/competitive/radioactivity; filed as Kd, often an IC50 or EC50 that approximates it; ≥ and ≤ were set here for values at or beyond the usual limits of such assays
HLA-A*32:01 = test: as above
HLA-A*30:02 = test: as above
HLA-A*01:01 [1] = test: as above
HLA-A*29:02 = test: as above
HLA-A*26:01 [2] = test: as above
HLA-B*08:01 [3] = test: as above
HLA-A*02:01 [4] = test: IEDB peptide-MHC binding, purified MHC/competitive/fluorescence; filed as Kd, often an IC50 or EC50 that approximates it; ≥ and ≤ were set here for values at or beyond the usual limits of such assays
HLA-A*11:01 [5] = test: IEDB peptide-MHC binding, purified MHC/competitive/radioactivity; filed as Kd, often an IC50 or EC50 that approximates it; ≥ and ≤ were set here for values at or beyond the usual limits of such assays; details: source organism: Dengue virus 4 Philippines/H241/1956
HLA-A*03:01 [6] = test: as above; details: source organism: Dengue virus 4 Philippines/H241/1956
HLA-B*08:01 [7] = test: IEDB peptide-MHC binding, purified MHC/direct/fluorescence; filed as Kd, often an IC50 or EC50 that approximates it; ≥ and ≤ were set here for values at or beyond the usual limits of such assays
HLA-B*15:01 = test: as above
HLA-B*58:01 = test: as above
HLA-A*31:01 = test: as above
HLA-A*11:01 [8] = test: as above
HLA-A*03:01 [9] = test: as above
HLA-A*26:01 [10] = test: as above
HLA-B*40:01 = test: as above; details: source organism: Pseudomonas fluorescens
HLA-A*01:01 [11] = test: as above; details: source organism: Pseudomonas tolaasii
HLA-A*02:01 [12] = test: as above; details: source organism: Pseudomonas tolaasii
HLA-B*27:05 = test: as above; details: source organism: Pseudomonas tolaasii
HLA-A*69:01 = test: as above; details: source organism: Pseudomonas tolaasii
HLA-B*07:02 = test: as above; details: source organism: Pseudomonas tolaasii
HLA-A*02:03 = test: IEDB peptide-MHC binding, purified MHC/competitive/radioactivity; filed as Kd, often an IC50 or EC50 that approximates it; ≥ and ≤ were set here for values at or beyond the usual limits of such assays; details: source organism: Dengue virus 4 Philippines/H241/1956
[13] = source organism: Mammarenavirus guanaritoense
[14] = source organism: Vaccinia virus WR
[15] = source organism: Dengue virus 4 Philippines/H241/1956
[16] = source organism: Dengue virus 2 Jamaica/1409/1983
[17] = source organism: Haemophilus influenzae
[18] = source organism: Lymphocytic choriomeningitis virus (strain Armstrong)
[19] = source organism: Pseudomonas tolaasii
[20] = source organism: Entamoeba histolytica HM-1:IMSS

TTDFTRLRY
Kd (HLA-A*30:01; [13]): 1930 nM | Kd (HLA-A*32:01; [13]): 11500 nM | Kd (HLA-A*30:02; [13]): 551 nM | Kd (HLA-A*01:01 [1]; [13]): 7.53 nM | Kd (HLA-A*29:02; [13]): 59.5 nM | Kd (HLA-A*26:01 [2]; [13]): 2410 nM

KLGNLLLLI
Kd (HLA-A*32:01; [14]): 0.716 nM

MFGTRKNSF
Kd (HLA-B*08:01 [3]; [14]): 2.04 nM

EIQLKIDKL
Kd (HLA-A*02:01 [4]; source organism: Variola virus): 3590 nM

ELKEKSVKF
Kd (HLA-B*08:01 [3]; [14]): 3.19 nM

MTLWYMWQVK
Kd (HLA-A*32:01; [15]): 927 nM | Kd (HLA-A*11:01 [5]): 6.51 nM | Kd (HLA-A*03:01 [6]): 7.82 nM

MTSERTLAV
Kd (HLA-A*02:01 [4]; source organism: Yersinia pestis Nepal516): 57.7 nM

ILRKATRRL
Kd (HLA-B*08:01 [7]; source organism: Influenza A virus (A/Ck/HK/CSW161/2003(H9N2))): 369 nM

IIIPFIAYFV
Kd (HLA-A*02:01 [4]; source organism: Variola virus): 50.5 nM

IGMNSRSTSL
Kd (HLA-B*08:01 [3]; [16]): 107 nM

LAIPPTAGVL
Kd (HLA-B*08:01 [3]; source organism: Dengue virus 3 Martinique/1243/1999): 11900 nM

RLFFIDWEY
Kd (HLA-B*15:01; [17]): 296 nM | Kd (HLA-B*58:01; [17]): 190 nM | Kd (HLA-A*31:01; [17]): 905 nM | Kd (HLA-A*11:01 [8]; [17]): 5270 nM | Kd (HLA-A*03:01 [9]; [17]): 1060 nM

KTTFKPNTW
Kd (HLA-B*58:01; source organism: SARS-CoV1): 157 nM | Kd (HLA-A*11:01 [8]; source organism: SARS-CoV1): ≥ 32600 nM

STLELRSGY
Kd (HLA-A*26:01 [10]; source organism: Influenza A virus (A/Egypt/96/2002(H1N2))): 24.8 nM

RKKARNTPF
Kd (HLA-B*08:01 [3]; source organism: Dengue virus 2 Peru/IQT2913/1996): 82.7 nM

SQMERFNCS
Kd (HLA-B*08:01 [3]; source organism: Vaccinia virus Copenhagen): 38.8 nM

SIKSKSRRL
Kd (HLA-B*08:01 [3]; [14]): 29.8 nM

EQMQRKHGGM
Kd (HLA-B*08:01 [3]; source organism: Dengue virus 1 Brazil/97-11/1997): 86 nM

IMRRRQYVL
Kd (HLA-B*08:01 [7]; source organism: Giardia lamblia ATCC 50803): 4 nM

RVMVSPLAV
Kd (HLA-A*02:01 [4]; source organism: Influenza A virus H3N2): 0.9 nM

FKGKTVWFVP
Kd (HLA-A*32:01; [16]): ≥ 69900 nM

WLHRGPKEF
Kd (HLA-B*08:01 [7]; source organism: West Nile virus): 2510 nM

IDNVHTWTEQ
Kd (HLA-A*32:01; [15]): 9850 nM

SWDNTSVDLY
Kd (HLA-A*30:01; [13]): 9330 nM | Kd (HLA-A*32:01; [13]): ≥ 69900 nM | Kd (HLA-A*30:02; [13]): 147 nM | Kd (HLA-A*01:01 [1]; [13]): 1280 nM | Kd (HLA-A*29:02; [13]): 856 nM | Kd (HLA-A*26:01 [2]; [13]): ≥ 69700 nM

EDMLKVWNRV
Kd (HLA-A*32:01; [15]): 19600 nM

SNRAIFVPI
Kd (HLA-B*08:01 [3]; [14]): 127 nM

LQFGFGWFSY
Kd (HLA-A*30:01; [18]): 5210 nM | Kd (HLA-A*32:01; [18]): 7.32 nM | Kd (HLA-A*30:02; [18]): 4.99 nM | Kd (HLA-A*01:01 [1]; [18]): ≥ 70400 nM | Kd (HLA-A*29:02; [18]): 19.6 nM | Kd (HLA-A*26:01 [2]; [18]): 473 nM

LMKERISSE
Kd (HLA-B*08:01 [3]; [14]): 81.9 nM

AEGTGITHL
Kd (HLA-B*15:01; [19]): ≥ 20000 nM | Kd (HLA-B*40:01): 54.3 nM | Kd (HLA-B*58:01; [19]): ≥ 20000 nM | Kd (HLA-A*01:01 [11]): ≥ 20000 nM | Kd (HLA-A*31:01; [19]): ≥ 20000 nM | Kd (HLA-A*02:01 [12]): ≥ 20000 nM | Kd (HLA-B*08:01 [7]; [19]): ≥ 20000 nM | Kd (HLA-A*26:01 [10]; [19]): ≥ 20000 nM | Kd (HLA-A*11:01 [8]; [19]): ≥ 20000 nM | Kd (HLA-B*27:05): ≥ 20000 nM | Kd (HLA-A*69:01): ≥ 20000 nM | Kd (HLA-A*03:01 [9]; [19]): ≥ 20000 nM | Kd (HLA-B*07:02): ≥ 20000 nM

NLIIHTAAL
Kd (HLA-B*08:01 [3]; [14]): 1.55 nM

YSEESPTEY
Kd (HLA-A*30:01; [13]): 19400 nM | Kd (HLA-A*32:01; [13]): ≥ 77800 nM | Kd (HLA-A*30:02; [13]): ≥ 76900 nM | Kd (HLA-A*01:01 [1]; [13]): 225 nM | Kd (HLA-A*29:02; [13]): ≥ 25400 nM | Kd (HLA-A*26:01 [2]; [13]): ≥ 77900 nM

DTIYPTAIY
Kd (HLA-A*26:01 [10]; source organism: Mycobacterium tuberculosis): 3 nM

ANKWYFAPR
Kd (HLA-A*31:01; [20]): 1.4 nM | Kd (HLA-A*03:01 [9]; [20]): ≥ 20000 nM

ALNELPESL
Kd (HLA-A*32:01; [15]): 1400 nM | Kd (HLA-A*02:03): 94.1 nM

DFIGFGAAY
Kd (HLA-A*26:01 [10]; source organism: Mycobacterium tuberculosis variant bovis): 3.2 nM
